Measurements reported in US20260234220A1 (OSPEDALE SAN RAFFAELE S R L, published 2026).

Tests used:
Assay in all cases: immunofluorescence on infected Vero E6 cells
[1] = molecular target: T1, spike protein of SARS-CoV-2 B.1.1.7 (Alpha) clinical isolate (19/Italy/LOM-UniSR7/2021); GISAID … (SARS-CoV-2, UniProt P0DTC2 14-1273)
T1 construct: whole, on cells

[2] = molecular target: T2, spike protein of SARS-CoV-2 P.1 (Gamma) clinical isolate (hCoV-19/Italy/LOM-UniSR8/2021); GISAID … (SARS-CoV-2, UniProt P0DTC2 14-1273)
T2 construct: whole, on cells

[3] = molecular target: T3, spike protein of SARS-CoV-2 Delta clinical isolate (hCoV-19/Italy/LOM-UniSR12/2021; GISAID EPI_ISL_4198505) (SARS-CoV-2, UniProt P0DTC2 14-1273)
T3 construct: whole, on cells

Measured: binding result

B1: Fab BS.70 (Fab, V domains shown)
VH: LESGGGVVQPGTSLRLSCAASGFTFNNFGMHWVRQAPGKGLEWVAMISYEGSKDFYADSVKGRFTISKDHARNTVYLQMNSLRAEDTAEYYCAKDKAIFMISAGRTLDFWGQGTLVTVSS
VL: ELVMTQSPSSLSASVGDRVTITCRASQNIGIYLNWYQQKPGKAPKLLIYAASSLQNGVPSRFSGSGSGTDFTLTISTLQPEDFATYWCQQGYSTPLTFGGGTKVEIR
binds: all assays above
